Measured values published in the domain aggregation screens of Martell et al. (2025).

Experiment: soluble fraction after stress (log2 fold change); higher = more stays soluble; pooled small domains, quantitative proteomics
Settings: stress: pH 4
In short: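 Aggregation propensity here comes from the fold change in the soluble amount of each small protein domain after acid stress, measured in pooled custom libraries by high-throughput quantitative proteomics. The acid stress was pH 4. On the log2 scale, higher values mean more of the domain stayed soluble.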

| Sequence | soluble fraction (log2) |
| --- | --- |
| HMEEIALTDILNRFLSSLSLEQRKIFMRRYWYLSPIKEIATEYGMSESKIKMSLFRSRNELKKLLEKEGI | -0.406 |
| HMGSLNDQVMKYIDALPSAFNKRELDFLIERGVKEFALNGEYLEKAIINEYKLTADTYHRER | 0.129 |
| HMPDAENFRYRVPYTTEQNRLQYYEGDIRAENADKARDQVMQDAQKYFAQNTAFTPNYIDTDIISLD | -0.615 |
| HMRRVRRTRRLLQDGLLGLMQHKAVADISVKELAEAADVARATVYVHFKDPADVLHQLEQGLY | -0.151 |
| HMRTLKDSTEYLIRSMLLRGEMKVGEIYSANALAKELNISNSPVREAMMSLVDRGLLENVRNRGFRVV | -0.115 |
| HMTRAEVQALLEKQAKDFEVEVVHRGWKKTVQTPEFAGWYSQQPAEIKALAESDDPAVAIRMLDLFSGTK | -0.644 |
| HMVMAELRISVDRLQIGNYIKLPLSWRDHPFLLSSFMIKKEEQIQLIRQLRLKHVFIIPEKSDAPPKPA | -1.81 |
| HMKTKTIMSTGAREDLVKMINEYYYSKNYIITEDNRIYNTKTEKFMDDLSVKFYRGRWKVIRN | 0.0289 |
| HMEEINTAPVFKNIIEIAEYAKTKFTTVEEIPKMIEFIETANSKLDNPHDEESVNELINALSTNIRKNV | -0.554 |
| HMGNAQELQKKLEGLKGISGIEKLESDHYAEKYLVRITQPVDHKNPAAGTFTQRVIVAHVGFDRPTILVT | 0.318 |
| HMHDYTTIIGVIELRLNKISYDNVQKRYRIGRSGISLIMERYRDSGLSLDDLKQMPAEKVVNLIYPKD | -0.108 |
| HMERPLFVIEDYRRFAGNEVEISLKKGGKKIRGVIAGTPSDAEVTVRTQGGETTVPLGDVKRAHLVYV | 0.0919 |
| HMKNLSQAEFMYLFKILAFGSTDPDNHPEMAATGMEIAKMLQGLLLSGNVLADILRKNQNVQFWL | -0.0785 |
| HMDNEIRIPLPSLQRDGFSIGTREDDGSQLVRIMSAGSFGGMIRSFRLPEGMRIEGAKWEGEIVSIRL | -0.0291 |
| HMAKRTVPSVAEAIDNFRRQHRRMPSYAEMLPLLGVRSKSVVHFWINKLLENGLLEKDDKGYLTPGS | -0.241 |
| HMKTRYPNVYQDEKGKFFYQIFIGTDTNGRKKLKKGRRDALGHPFSSAYQASKEAKRVQALYANVS | -0.0451 |
| HMKEIKAPNKINAHLIEEWRSQHPTELFPEEKVDLIYYKGEEYYFVIEEKNELGEIEEWYFAYDGGIDYV | -0.373 |
| HMSQSMEVLYTDLTDKDAAAIVEKLEEEKIPYQLEDQGTTILVPPGVKYTTRLKLAAEDLPKG | 0.178 |
| HMAERVWASLLEIKNAVAIEDAKTLEDVDNSEKIAEERIAALNDDAKHPLAIAFIGKLRQDIAEKKIELA | -1.19 |
| HMEMTSREIIKRLEEDGWYHVKTTGDHYQMKHPTKPGKVTIVHPAKDLSIGTLRSIEKQSGVRL | ≥ 0.43 |
| HMNDIDKFVAALVDQDTMAGTNRAFDENDIQTMKNMSSIEDVKQYAVANGLSSGKVNNALISAGL | -0.195 |
| HMFIPGDSVRVHVKVVEGSNERIQMFEGVVIARQGSGVRENFTVRRISYGVGIERTFPVHSPRL | -0.62 |
| HMRSVLSDEIYLLIRKMIFNYEILPGAKVNIDALAKKLDVSQTPVREALSRLESDGLIVKEPLKGFRATD | -0.239 |
| HMIEDMTINIEERLSLNGDIKKSEYILQYIKPDFIRKVILSPELNKGEIYIYDSKKKVMYLPLFDQVSEEI | -1.09 |
| HMQSSDQTDNIYENAVSIVLETGKASASHLQRVLGIDYNLAAHLIDKMEDGGLLSPPNYLGHRDVYGYT | -1.06 |

| Sequence | soluble fraction (log2) |
| --- | --- |
| HMTPSTVQVHVAGAVKNPGVYVLLENARNIDAITAAGGATSEADLERINLSEFIRDGQRVYVPYKGDPI | 0.0384 |
| HMENPVPVIITDQNFQPLLWKNVGVPTDTIFHELSPENQKKLENLMKTMVQMPLTDDGRISGYAYYSK | 0.149 |
| HMGPTPTSAQLTEAKRLRTKLDDLNPELAERLWSEHREPYTETQYQTLIEKLAAEVQSAEGEIGR | 0.351 |
| HMKPSKTDEAEYWLMERLEEGPQPAGDLIRIGEEFGYTPKILRDAGERFNMERYKDGLDHWMWKLPN | 0.349 |
| HMQLFKFKNAMMELAKNKNITLDTAEKAIGLEAGFTELVARGVKELALSDVIKISKYFNTTMDSVLD | -0.995 |
| HMAEQDILQSVYPHIGGQDNVSRTISRNGTLYLMLKDASAVDLKAVKQVPGIADAALERGRLTLQLEE | -0.0819 |
| HMNNQIFGLKFRQLRKQQHITLAKAAAGITSRQSLGNWETGKGELAFEKVLLLLKKINVQPIDFLESSIS | 0.264 |
| HMFDFGNHLRMLREKHGISQEELGRRVGRAGSVISNYENNIKIPTLDVLTTMARIYDVSLDYLVG | -1.06 |
| HMLPSELLAQQRIVVQPGHNLWRIARATYGRGARYTVIYQANREQIADPNRIFPGQVFALPAA | -0.227 |
| HMESIEGMYKISLLRKQGNAYVIFEDENKEAVEHIFPEKPTALELGTKVIEMFEYKERYDGLI | -0.781 |
| HMISSRDAAVIGLVENIQRAQLNAIDESSGFKHLMETYNLESKEIALLVGKSRSYVSNSLRLSK | -0.235 |
| HMDGSEYAGTVRLGDGTLQPVPRFETSNSETPKYLYLVMDVTHDPPVYILEHESAELKSVLGGLVLIGSYS | -0.0612 |
| HMEPDEIVLDHRKRIENSDAIVLIAPIWNFRMPAILEGWIDKVLAPPWAFKFKKLFGNYGYPVGNLKG | -0.121 |
| HMGYDSYDADTIPKLKIGSIVEHPKFGEGSIISKAGAEVTIAFKIKGVKKINLEYTSIKVLK | 0.117 |
| HMEDSHIYPVSFNGKMRFKLELPVSMNKKEIEEVVLQHEDAQKWLNGQNPKKVIVVPKRIINIV | 0.308 |
| HMDFITPYEIEQGQYEGAELYEDGKFEEAFSLSSIAAQRGMKTAQYLLGIMFLKGEYVDQSLAIGMAW | -1.18 |
| HMSPGAKIEVTGNTVNLRAGPGTNYDTRGQVKKGEQLPLLGEQGGWYRVQTSRGVAYLAGWLARVLT | -0.0378 |
| HMGKSKAAQSSLVRSIMHQISDKNRGPMPLSEIIDRASIQSIDEAIVRSLVSRMKEQGEIYEPSLGTYEF | -0.163 |
| HMSWEQELIEKANEIIDLYPEKRSALGPLLYLAQERDGYISDESIVEISNLVGITEVQVKSVASFYSMYK | -2.88 |
| HMPVQSNRDALLDIGQTLQVQAWDAQGSARVSYRGSDWTAEFRGPGAAAPGLHRIIAVQGNRLIVEPA | -0.164 |
| HMGQDGFIGLEAAKKLVLQKLGLTSAEFIKAELDAEDRKYELELIVDGIEYDFDIDAYSGAFLKQEQETV | 0.122 |
| HMYHIYPVADNDTPKLSADRLEYSLSNALLTNKLLNIDEIKKIYNDVILDKDEDGTLELSFKS | 0.167 |
| HMAQVRSTVERRENGTYTVELNLNDDVDNVMRLQLMVATKEMAEDLAQRFQKNPEQVYSQLVTALYG | -0.719 |
| HMTPKVAVPSFVGWKFEDVERQLGTMGLIRGKVDNHPSEEYSEGRVIWQSVLGEVEKGKVIDFWVSTGPE | -0.776 |
| HMDLIFQKGDLVFSTEHNQRGIFYEYLEQGQAKISIEKQFFVVAARRLQLLTKREVLYPAGYDLDQLFV | -1.05 |

| Sequence | soluble fraction (log2) |
| --- | --- |
| HMQATETFSLIVPMSSAGNRLDVVLSELLPNFSRKKIQDAIKNGDATLNGKAPKIRDKVYGGENITITLIL | 0.0369 |
| HMVMPTGRVRYYDAEKGFGFLSKDSGGDDVYVRSSALPAGVTSLKRGQKVEFGIIDGKRGEQALSVHLL | 0.0712 |
| HMLAGVDTLADRELEVFQMLGRGKSTKEIAQVLNLGESTVETYRARIKEKLQLRSAAELYLRAGQWVRDHG | -0.426 |
| HMHRFAVLDTVREVAAGGVAATLSIGVGRDADSFDALFKNASMALEMALSRGGDQAVVKDRMNFQFYGG | -0.0192 |
| HMQRADYLILYYIKMQAEQHPDSKVYLADLAAVMGLKVTELSKAVEKLQDNGFVAWKTDREAGRTYVELS | -0.89 |
| HMEYKNYYDSPVGRLELLSDGVSLTAVLFENQQGDGTREENTSLAIFKEATQWLDAYFKGDNPEITIPL | 0.33 |
| HMDRMINYSPIVAKVPQDDYTTKVYNIPIYSELTVVDKISEPEPLIAPIYRFKYITPEDEEIEFDIPV | -0.39 |
| HMFMNFAEHLMALRKQRGWSQEELGSQIGVTRQTVSKWEMGQSTPELEKLVELSRLFGMSIDQLVGL | -0.00635 |
| HMDAVKKKVQSTNTLLDVLKQMLPQTSSNTLRKMLTNQRITVDGETIHRAKHTVEKDQTVEIHPKP | ≥ 0.43 |
| HMDGIPVPDVKGTVEAEATATLKNSGFEVTKTQDFSDTVEAGKVISQNPAGGSSAASGSSVTLVISQGPN | -0.232 |
| HMALWFDEWKKYQDTIASADLLPDKAERDALIAQAEDRFNYWMDIYPRSASLNHSFDDLYEEHRRKIE | -1.33 |
| HMGEEIRTWTDAQGRKIEARMSMLDGDQVLLELKDGRKIPYPLAKLSADDAHYARHFASASASD | -0.00959 |
| HMSANVSMEEALRRTSQAHSLAGKWMRRVLQMAQGRDLIEQMQREAQEAHLPELIGMSVQLEFIRRG | -0.363 |
| HMGSKQVSVPDVRNLDYERASQQLREAGFVVGDVLRIRDDRAPAGTVIAQSPAAPALVPENARVSLLVSSG | 0.00984 |
| HMGRELDLNQRVYDFIHDIADEVRTDEGTFSANQMMERFLFPGDLQSVPIGRLSGGERRRLYLLSVLMVKI | -1.15 |
| HMNNQMTFSKFLNEVDAGRVVEVEIQGNNIKGVLADGNRFNTFSPNYPNLVEKLSDKGVSITAAPK | 0.205 |
| HMKKVTMQDIANILNISRVTVWKVLNNQPGVSKQLRDQILLTAKETGYLKPGQEAEAYLEENNIYFEG | -0.344 |
| HMSESLLTAAGFKTIAATTPEQKRHLEWLHPDQVTAVQLTGQHYYVYPDVAKSQLFVGTPKEYQAYLALRT | 0.00516 |
| HMVMTTVPEVLGMDISKAASLLTGKNLDYDYDLVESDKPKDQVIEQDVVKGTEVPEGTVIHLKVSKGPA | -0.0925 |
| HMKDLSMPDVMGSSLNDAKKALTELGIMDITVRYVESGSSEGSIVGMEPPAGSKFAADGKVVLQVSSGS | 0.0083 |
| HMAPLEPLTDRETEMLVRLANGASNKVMARESFVSENTIKFHLKNIYAKLGVTSRLQAIAAARNQGLI | -0.0342 |
| HMNMIGDVIRNLRTVSSMTQTELGQRMGVIKQTISNWEKNISTPSIDAIVKLSSIFNVPTDYLL | -0.178 |
| HMDVIDDAQAMEIALEDAGLSMDDLDRYELELHTKRSELVYSIELKSGTEEYEYDLRAADGTILKRDTDF | -0.799 |
| HMQARDQNVDEGKALLEKEFSRLALENLDRDKLANAVNYPTRDDMYAAIGAGDLRVGQVLHQAQQLF | -0.323 |
| HMQEKIREVANRIRELRESLEVSPEEMADHLKVTIGTYIEYERGEADIPASVLFGIAHRLNVDMAVLL | -1.36 |
